Target: HLA-A*02 (Homo sapiens, UniProt P04439, D140Y/D185E/D98H/E176V/E277Q/G131W/G231S/I119V/I121R/I166T/I218V/N151K/N90K/P208A/P217A/Q86G/Q94H/R138H/R169H)
Assay: MHC binding assay: UV-ligand exchange, beta2m ELISA (peptide exchange yield)
Conditions: binding to HLA-A*02, β2m ELISA
Description: Candidate peptides for T cell based therapies according to the present invention were further tested for their MHC binding capacity (affinity). The individual peptide-MHC complexes were produced by UV-ligand exchange, where a UV-sensitive peptide is cleaved upon UV-irradiation, and exchanged with the peptide of interest as analyzed. Only peptide candidates that can effectively bind and stabilize the peptide-receptive MHC molecules prevent dissociation of the MHC complexes. To determine the yield of the exchange reaction, an ELISA was performed based on the detection of the light chain (β2m) of stabilized MHC complexes. The assay was performed as generally described in Rodenko et al. (Rodenko et al., 2006).
96 well MAXISorp plates (NUNC) were coated over night with 2 ug/ml streptavidin in PBS at room temperature, washed 4× and blocked for 1 h at 37° C. in 2% BSA containing blocking buffer. […] Peptide-MHC monomers of the UV-exchange reaction were diluted 100 fold in blocking buffer. Samples were incubated for 1 h at 37° C., washed four times, incubated with 2 ug/ml HRP conjugated anti-βm for 1 h at 37° C., washed again and detected with TMB solution that is stopped with […]. Absorption was measured at 450 nm. Candidate peptides that show a high exchange yield (preferably higher than 50%, most preferred higher than 75%) are generally preferred for a generation and production of antibodies or fragments thereof, and/or T cell receptors or fragments thereof, as they show sufficient avidity to the MHC molecules and prevent dissociation of the MHC complexes.

Substance | Peptide exchange (MHC class I binding score, peptide exchange yield)
58 (ALDDSLTSL; listed as Homo sapiens) [compound 58] | ++ (20%-49% = ++)
82 (VLLRVLIL; listed as Homo sapiens) [compound 82] | ++ (20%-49% = ++)
25 (IQADDFRTL; listed as Homo sapiens) [compound 25] | ++ (20%-49% = ++)
1 (PLWGKVFYL; listed as Homo sapiens) [compound 1] | ++ (20%-49% = ++)
6 (FLDPAQRDL; listed as Homo sapiens) [compound 6] | +++ (50%-75% = +++)
4 (ELAEIVFKV; listed as Homo sapiens) [compound 4] | +++ (50%-75% = +++)
31 (ALSDETKNNWEV; listed as Homo sapiens) [compound 31] | ++++ (>= 75% = ++++)
41 (FVLPLVVTL; listed as Homo sapiens) [compound 41] | +++ (50%-75% = +++)
57 (VLISSTVRL; listed as Homo sapiens) [compound 57] | ++ (20%-49% = ++)
67 (GVIETVTSL; listed as Homo sapiens) [compound 67] | ++ (20%-49% = ++)
39 (ALMAVVSGL; listed as Homo sapiens) [compound 39] | +++ (50%-75% = +++)
20 (ALDGHLYAI; listed as Homo sapiens) [compound 20] | +++ (50%-75% = +++)
40 (SLLALPQDLQA; listed as Homo sapiens) [compound 40] | +++ (50%-75% = +++)
27 (KVFGDLDQV; listed as Homo sapiens) [compound 27] | +++ (50%-75% = +++)
59 (ALTKILAEL; listed as Homo sapiens) [compound 59] | +++ (50%-75% = +++)
44 (GLLWQIIKV; listed as Homo sapiens) [compound 44] | ++ (20%-49% = ++)
56 (KILDLTRVL; listed as Homo sapiens) [compound 56] | ++ (20%-49% = ++)
36 (KLYGIEIEV; listed as Homo sapiens) [compound 36] | ++++ (>= 75% = ++++)
83 (ELLEYLPQL; listed as Homo sapiens) [compound 83] | +++ (50%-75% = +++)

Continued, values first:

Peptide exchange (MHC class I binding score, peptide exchange yield) | Substance
+++ (50%-75% = +++) | 334 (GRADALRVL; listed as Homo sapiens) [compound 334]
+++ (50%-75% = +++) | 85 (STLDGSLHAV; listed as Homo sapiens) [compound 85]
++ (20%-49% = ++) | 339 (VLGPGPPPL; listed as Homo sapiens) [compound 339]
+++ (50%-75% = +++) | 326 (SLLPLVWKI; listed as Homo sapiens) [compound 326]
++ (20%-49% = ++) | 338 (LLYDGKLSSA; listed as Homo sapiens) [compound 338]
++ (20%-49% = ++) | 336 (GLMDGSPHFL; listed as Homo sapiens) [compound 336]
++ (20%-49% = ++) | 92 (LLRGPPVARA; listed as Homo sapiens) [compound 92]
+ (<20% = +) | 91 (SSLEPQIQPV; listed as Homo sapiens) [compound 91]
+++ (50%-75% = +++) | 89 (YLVAHNLLL; listed as Homo sapiens) [compound 89]
